Assay results: the supplement of paper PMC12764529
± gives the half width of the 95% confidence interval.

assay: folding stability dG unfold from chymotrypsin proteolysis; higher = more stable
Outline: (§1)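 K50 was inferred by Bayesian fitting of sequencing counts obtained after protease digestion of designed mini-proteins. Unfolding free energy was derived by comparison with a sequence-predicted unfolded-state K50 and a shared folded-state K50, for each protease or both combined. The mini-proteins were under 80 residues, had no cysteine, were carried in a PA-tagged cDNA display construct, and were kept only if AlphaFold2 dimer inter-PAE exceeded 15.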

Point of comparison: “SAGGIVAADVSPDGTVYPISPEAVRALVDAIRDRYGFDVKVTITEARYGDRWVTVIPIELTGLSPEEASAGG [r13_790_TrMRF]”, “folding stability dG unfold” value 1.54 ± 0.02 kcal/mol. Against it:
- SAGGMTKIEVEYYPEKITVTVTTDNPSENPLDIIKKKTGFKIEGGEVLYPSPNVVVVKLKVDPKDLKKSAGG [r13_498_JUSTAS] — lower, 1.07 ± 0.11 kcal/mol
- SAGGSAGGSAGGGMPSVTVTPVTLTVPTEVLVDGGPLLREREVRLTVITYPYTNTVVVDSAGGSAGGSAGGS [r10_533_JUSTAS] — lower, 0.494 ± 0.16 kcal/mol
- SAGSMTLESEDPSSGLRVTVTVEREPFLLPDGTRVLRRTVTTTVTTPDGEVLESEDVEVVAVLPPDAPLSAG [r5_871_JUSTAS] — higher, 2.43 ± 0.04 kcal/mol
- SAGGMKIEIKIIDEETGEEITITVTMTPEEIEKLAKELEEKYPGLEIVSVEIEEKDGEIIITIKIKKKSAGG [r13_196_TrROS_Hall] — higher, 2.71 ± 0.071 kcal/mol
- SAGGSRVEVEVEVEGDTLRVRLRVYSEGGPPLLEAEAELPLGPVPPLPPVEVRVDPLEEEYPAKYFSAGGSA [r2_332_TrMRF] — higher, 2.28 ± 0.17 kcal/mol
- SAGMTVEELRNLPPGYRVLEVKFDPETGKYTVVVERPDEDGVPHKVTIEVDGLEELEEFFKTGLTELKLSAG [r5_905_TrMRF] — lower, 0.897 ± 0.1 kcal/mol
- SAGGSAGGSAIPKAPVTVTVTTADGRPALATVEYYPDGVLVTVHYGDKTVTAWVAPADISASAGGSAGGSAG [r3_373_TrMRF] — higher, 2.19 ± 0.11 kcal/mol
- SAGMTVKTEVHTTTLPETGLVRTEETVTYPDGSVIRRTGDSNPETGEVTTTVTTPDGTLLATETTTITPSAG [r14_524_JUSTAS] — lower, 0.426 ± 0.033 kcal/mol
- SAGGSMLSTEPKETDDEIKVTKIYYPEEPIEVTLTTDPDTDLVTATSPSSTATIDAKTGKTTTTPSSSSAGG [r13_416_JUSTAS] — lower, 0.876 ± 0.039 kcal/mol
- SAGGKIEEILKKLNLKPGEKAKIKDIKIEVKTVTVTEKKYKNGKLVEEKEKTVTVVKIEIKIELEKPKSAGG [r13_482_TrROS_Hall] — higher, 3.97 ± 0.18 kcal/mol
- SAGGSAGGSAGGKVHPDQPVKLRLTFTVSGVYYDENKPRVETKPVTVEFTALAPDEDALSAGGSAGGSAGGS [r10_745_TrMRF] — lower, 0.208 ± 0.17 kcal/mol
- SAGGSAGGMITVNSEEEAKELEAELKEKGYKAEVTPKTGKNGPYYLITLTPIPKKKKSTKKSKLSAGGSAGG [r6_182_JUSTAS] — lower, 1.03 ± 0.11 kcal/mol
- SAGGSAGGSAGGKIVIELPKELEGLTAEELAELLKKEFGEKGLKVTVVEKDGKLYLVIDSAGGSAGGSAGGS [r10_579_TrROS_Hall] — higher, 3.34 ± 0.15 kcal/mol
- SAGGMKPKEVIEIEITLPDGRKIRIRLVKKDGKLYLFIEVPEENEEARELAEELAKKLPGVEVEVFEPSAGG [r13_34_TrROS_Hall] — higher, 3.26 ± 0.12 kcal/mol
- SAGGSAGGKITLLDEEEIEEVAKELGIDPENIRVIKVENEIIAILSKAKPLTPEKLKEIVEKLKSAGGSAGG [r6_243_JUSTAS] — lower, 0.686 ± 0.029 kcal/mol
- SAGGMKEIEIDIPLENGEPAKIRIILLNLPDKPRAFIDIESKILPKEEIAKIITKLLPEEIKEVVIDESAGG [r13_404_TrMRF] — lower, 0.383 ± 0.5 kcal/mol
- SASTSSISTETESRKISSFTVGDKEYEIYENTTTTTLPDGSVVTTTTLSVKDPSSNVTKTLSSTTTFTPSAG [r14_195_JUSTAS] — higher, 2.49 ± 0.03 kcal/mol
- SAGGSAGGSAGDKRITIWFPVPPGQPPPTLEEIADELPGFEDVDIDVEMYPNGYYRITIESAGGSAGGSAGG [r17_205_TrROS] — lower, 1.05 ± 0.14 kcal/mol
- SAGGSAGGSKLKLEIPPGFKNVEIEVLKYNPDNGYIRVKITIYDPNNGKQFTMDRWIPADDLKSAGGSAGGS [r12_964_TrROS] — within error, 1.65 ± 0.16 kcal/mol
- SAGPEITREFVSYDPETGLRYFEYTLINKKNGKEVKKVKVGYSLYDLASGTERPLPEEELKKRAEEALKSAG [r5_909_JUSTAS] — lower, 0.433 ± 0.16 kcal/mol

assay: folding stability dG unfold (combined trypsin and chymotrypsin); higher = more stable
Outline: as §1

Point of comparison: “SPPITFFRVPAEYDEPNGKRTIKVRIWRIRDVEKDPNGGPKMDMEPQPVTFKLPVPPGAPIPPGDWIFAFSA [r9_277_TrROS]”, “folding stability dG unfold” value 0.831 ± 0.34 kcal/mol. Against it:
- SAGGSAEEEVYRVRVTVTYRNPETGEVVEEVELVIEVEKGKTVEEVARELAKKLNVDRVEVELVPPSAGGSA [r15_540_TrROS_Hall] — higher, 4.27 ± 0.1 kcal/mol
- SAGGSANWRPIEIELMIGIKSKEQAKEWAEEIADNFPGIKDVEVEEFPDPDGHVMVAVDVKFYVPESAGGSA [r15_726_TrROS] — within error, 0.969 ± 0.075 kcal/mol
- SAGGSAGGNIKVKVPYERHPDYYYMTVTIYDPGDDKKLELSYMFPPGTKMPAEEWARDIVKDILSAGGSAGG [r6_234_TrROS] — within error, 1.13 ± 0.13 kcal/mol
- SAGGSSMTVTKLPTNKTVTTRPLPSSSSVTTTTTFDPNSPVATVTTTDTSSDTSTTTTVPLGPGAFSAGGSA [r2_114_JUSTAS] — within error, 0.824 ± 0.11 kcal/mol
- SAGGSAGGSAGMTVTETPVLVRYPEDGSVRPFTLTTSPEPGTLTLDLPPAEWPPLEITPPGSAGGSAGGSAG [r3_454_JUSTAS] — lower, -0.324 ± 0.17 kcal/mol
- SAGGSAGGSAGGSTITISPEQPVEGLTIELDGKTIKVVSYTPEPKEGEPLLKVTVERLDSAGGSAGGSAGGS [r10_1098_JUSTAS] — lower, -0.771 ± 0.81 kcal/mol
- SAGGSAGGMKPGEEKEITLPDGSKIKVRIKDGKLEIEFENGERKEIEIKPGEKIEIKLPKGVKPSAGGSAGG [r6_970_TrROS_Hall] — higher, 1.81 ± 0.083 kcal/mol
- SAGGSAAVGTSKGANVVTVRVEELEDKVVVYRYDPATGTVRVIVIDKPTGKALETKTFPVLPDQDASAGGSA [r15_425_TrMRF] — higher, 1.65 ± 0.049 kcal/mol
- SAGGSAGGSELPIKEITVTSYDPKTGKYTVTITQGEGPTYTTTATSPEEVKKRYPDVKVTTSGSAGGSAGGS [r12_403_JUSTAS] — within error, 0.718 ± 0.056 kcal/mol
- SAGGSAGGSAGGKPKTIRIKVYNEETGEVVTLEFPEGMSLEEVKKLLEALPNLKVVEIEPSAGGSAGGSAGG [r7_624_TrROS_Hall] — higher, 4.45 ± 0.24 kcal/mol
- SAGEKIKEKIKEILKELFPDAEVEIKTLPDGTIIIKLKKDKKIIVIKKTKDGKIKIVKVMTAEELKKLSSAG [r5_852_TrROS_Hall] — higher, 1.51 ± 0.29 kcal/mol
- SAGGSAGGSAGGNWYIIIYFPPGRKRIIPFDSPEEMREEMKENGMPIKIMPKEDAEKLLSAGGSAGGSAGGS [r10_66_TrROS] — within error, 1.14 ± 0.084 kcal/mol
- SAGGSAGGSMKWTSIASYPHPDMVVHVIKFEGGGELTFPAPFEDLVEIAEKFDLDLEFTGDHPSAGGSAGGS [r12_676_TrMRF] — within error, 0.447 ± 0.11 kcal/mol
- SAGGSAGGSAMDVFTAALNNKELEEAIKKASPDEKEIEIELPGGKKIRIFRTDDGGYIFEPSAGGSAGGSAG [r3_124_TrMRF] — higher, 1.52 ± 0.11 kcal/mol
- SAGGSARPLYIKVQIRNPPNGKKKTIEIPIENMPPGDPEYYKEMARSIAEELQEQNGMEIEGIEIYSAGGSA [r15_1013_TrROS] — within error, 0.566 ± 0.19 kcal/mol
- SGMPTLEIEIEFPEVKGETPVPGTDRTLIDTPMKITVTKIENGPPETVEVELPPKLWTEEIEERIKKILGSA [r9_656_JUSTAS] — within error, 0.485 ± 0.47 kcal/mol
- SAGGSAGGSAGMPTLKIKVLVRNEETGEWQEVEIELPEGMTLEELLAALPPEQVERVEPVSAGGSAGGSAGG [r11_386_TrROS_Hall] — higher, 2.85 ± 0.073 kcal/mol
- SMFKNVKSVHIYQDPIKGNNLIIVAETEEGTVELELPEDKAIEFLNTLKEKGFDIKVTHVEYLPVSPEYGSA [r9_607_TrMRF] — higher, 2.36 ± 0.081 kcal/mol
- SAGGDMYFVTVEIWRPREPDPDGEWKWEPIPITFPFDPDQAEDFAKEIINILQKDGYHVKIKVIPMPSAGGS [r8_10_TrROS] — higher, 3.17 ± 0.43 kcal/mol
- SAGSMTPEEIRERIEALAEEVGEPPVRVLLKGPSGPLYELDVRFTPEHLEEARRALGVDVVEVEPVPESAGG [r19_50_JUSTAS] — lower, -0.00549 ± 0.17 kcal/mol
- SAGGMTKIEVEYYPEKITVTVTTDNPSENPLDIIKKKTGFKIEGGEVLYPSPNVVVVKLKVDPKDLKKSAGG [r13_498_JUSTAS] — within error, 0.799 ± 0.27 kcal/mol
- SAGGSAGGSAGGGMPSVTVTPVTLTVPTEVLVDGGPLLREREVRLTVITYPYTNTVVVDSAGGSAGGSAGGS [r10_533_JUSTAS] — lower, 0.23 ± 0.099 kcal/mol
- SAGGIVAADVSPDGTVYPISPEAVRALVDAIRDRYGFDVKVTITEARYGDRWVTVIPIELTGLSPEEASAGG [r13_790_TrMRF] — higher, 1.5 ± 0.08 kcal/mol
- SAGSMTLESEDPSSGLRVTVTVEREPFLLPDGTRVLRRTVTTTVTTPDGEVLESEDVEVVAVLPPDAPLSAG [r5_871_JUSTAS] — higher, 2.46 ± 0.077 kcal/mol
- SAGGMKIEIKIIDEETGEEITITVTMTPEEIEKLAKELEEKYPGLEIVSVEIEEKDGEIIITIKIKKKSAGG [r13_196_TrROS_Hall] — higher, 3.29 ± 0.21 kcal/mol
- SAGGSRVEVEVEVEGDTLRVRLRVYSEGGPPLLEAEAELPLGPVPPLPPVEVRVDPLEEEYPAKYFSAGGSA [r2_332_TrMRF] — higher, 2.5 ± 0.31 kcal/mol
- SAGMTVEELRNLPPGYRVLEVKFDPETGKYTVVVERPDEDGVPHKVTIEVDGLEELEEFFKTGLTELKLSAG [r5_905_TrMRF] — higher, 1.35 ± 0.16 kcal/mol
- SAGGSAGGSAIPKAPVTVTVTTADGRPALATVEYYPDGVLVTVHYGDKTVTAWVAPADISASAGGSAGGSAG [r3_373_TrMRF] — higher, 1.54 ± 0.17 kcal/mol
- SAGMTVKTEVHTTTLPETGLVRTEETVTYPDGSVIRRTGDSNPETGEVTTTVTTPDGTLLATETTTITPSAG [r14_524_JUSTAS] — lower, 0.184 ± 0.048 kcal/mol
- SAGGSMLSTEPKETDDEIKVTKIYYPEEPIEVTLTTDPDTDLVTATSPSSTATIDAKTGKTTTTPSSSSAGG [r13_416_JUSTAS] — within error, 0.545 ± 0.14 kcal/mol
- SAGGKIEEILKKLNLKPGEKAKIKDIKIEVKTVTVTEKKYKNGKLVEEKEKTVTVVKIEIKIELEKPKSAGG [r13_482_TrROS_Hall] — higher, 3.22 ± 0.26 kcal/mol
- SAGGSAGGSAGGKVHPDQPVKLRLTFTVSGVYYDENKPRVETKPVTVEFTALAPDEDALSAGGSAGGSAGGS [r10_745_TrMRF] — lower, 0.185 ± 0.07 kcal/mol
- SAGGSAGGMITVNSEEEAKELEAELKEKGYKAEVTPKTGKNGPYYLITLTPIPKKKKSTKKSKLSAGGSAGG [r6_182_JUSTAS] — within error, 1.13 ± 0.21 kcal/mol
- SAGGSAGGSAGGKIVIELPKELEGLTAEELAELLKKEFGEKGLKVTVVEKDGKLYLVIDSAGGSAGGSAGGS [r10_579_TrROS_Hall] — higher, 3.5 ± 0.24 kcal/mol
- SAGGMKPKEVIEIEITLPDGRKIRIRLVKKDGKLYLFIEVPEENEEARELAEELAKKLPGVEVEVFEPSAGG [r13_34_TrROS_Hall] — higher, 3.03 ± 0.14 kcal/mol
- SAGGSAGGKITLLDEEEIEEVAKELGIDPENIRVIKVENEIIAILSKAKPLTPEKLKEIVEKLKSAGGSAGG [r6_243_JUSTAS] — within error, 0.934 ± 0.055 kcal/mol
- SAGGMKEIEIDIPLENGEPAKIRIILLNLPDKPRAFIDIESKILPKEEIAKIITKLLPEEIKEVVIDESAGG [r13_404_TrMRF] — within error, 0.694 ± 0.28 kcal/mol
- SASTSSISTETESRKISSFTVGDKEYEIYENTTTTTLPDGSVVTTTTLSVKDPSSNVTKTLSSTTTFTPSAG [r14_195_JUSTAS] — higher, 2.32 ± 0.12 kcal/mol
- SAGGSAGGSAGDKRITIWFPVPPGQPPPTLEEIADELPGFEDVDIDVEMYPNGYYRITIESAGGSAGGSAGG [r17_205_TrROS] — within error, 0.966 ± 0.078 kcal/mol
- SAGGSAGGSKLKLEIPPGFKNVEIEVLKYNPDNGYIRVKITIYDPNNGKQFTMDRWIPADDLKSAGGSAGGS [r12_964_TrROS] — higher, 1.56 ± 0.19 kcal/mol
- SAGPEITREFVSYDPETGLRYFEYTLINKKNGKEVKKVKVGYSLYDLASGTERPLPEEELKKRAEEALKSAG [r5_909_JUSTAS] — lower, 0.24 ± 0.16 kcal/mol
